In PMC6642015 (Cell chemical biology, 2019):

T1: human MCM-CblA complex (Homo sapiens, UniProt Q8IVH4)
T1 sequence (Q8IVH4 66-418 limits assumed): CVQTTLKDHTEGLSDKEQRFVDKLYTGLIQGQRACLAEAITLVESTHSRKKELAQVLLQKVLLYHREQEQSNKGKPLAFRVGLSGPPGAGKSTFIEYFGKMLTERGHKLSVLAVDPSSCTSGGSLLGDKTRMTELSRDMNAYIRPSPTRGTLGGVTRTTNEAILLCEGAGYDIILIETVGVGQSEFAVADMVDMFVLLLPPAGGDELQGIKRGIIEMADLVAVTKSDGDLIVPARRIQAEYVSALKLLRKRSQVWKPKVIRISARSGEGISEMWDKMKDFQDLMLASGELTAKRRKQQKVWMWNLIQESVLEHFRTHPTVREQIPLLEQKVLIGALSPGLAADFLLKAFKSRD
T1 sequence (P22033 33-750 partner): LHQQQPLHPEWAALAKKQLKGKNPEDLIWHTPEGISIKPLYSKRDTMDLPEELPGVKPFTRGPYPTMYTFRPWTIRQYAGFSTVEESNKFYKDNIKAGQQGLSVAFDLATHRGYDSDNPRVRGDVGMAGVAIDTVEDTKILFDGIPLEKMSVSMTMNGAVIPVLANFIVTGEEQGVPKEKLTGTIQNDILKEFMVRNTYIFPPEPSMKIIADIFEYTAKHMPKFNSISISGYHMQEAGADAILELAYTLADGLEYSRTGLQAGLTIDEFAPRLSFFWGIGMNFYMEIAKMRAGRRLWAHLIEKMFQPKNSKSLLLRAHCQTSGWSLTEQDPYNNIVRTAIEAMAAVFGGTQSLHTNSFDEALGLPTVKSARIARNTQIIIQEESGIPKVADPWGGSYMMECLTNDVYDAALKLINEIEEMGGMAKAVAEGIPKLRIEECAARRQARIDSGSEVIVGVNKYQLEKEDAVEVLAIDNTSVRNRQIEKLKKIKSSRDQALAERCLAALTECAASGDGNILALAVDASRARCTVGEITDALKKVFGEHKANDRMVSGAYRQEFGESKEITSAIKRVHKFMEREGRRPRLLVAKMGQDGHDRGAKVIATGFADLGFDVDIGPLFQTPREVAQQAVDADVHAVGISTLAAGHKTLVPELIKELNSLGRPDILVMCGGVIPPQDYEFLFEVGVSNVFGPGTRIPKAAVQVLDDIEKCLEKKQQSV

T2: human CblA, wild type (human, UniProt Q8IVH4 72-418)
T2 sequence: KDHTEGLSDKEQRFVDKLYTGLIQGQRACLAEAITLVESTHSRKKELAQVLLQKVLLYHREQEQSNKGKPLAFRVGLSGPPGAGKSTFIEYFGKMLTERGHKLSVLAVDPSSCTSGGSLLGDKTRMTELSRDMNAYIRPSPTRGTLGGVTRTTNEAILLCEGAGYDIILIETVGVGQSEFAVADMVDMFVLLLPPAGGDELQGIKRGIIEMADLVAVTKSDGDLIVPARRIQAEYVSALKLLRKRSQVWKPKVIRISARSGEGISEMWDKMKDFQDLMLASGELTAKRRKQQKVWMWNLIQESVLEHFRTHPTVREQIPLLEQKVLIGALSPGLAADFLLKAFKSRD

T3: human CblA G274S (human, UniProt Q8IVH4 72-418, G274S)
T3 sequence: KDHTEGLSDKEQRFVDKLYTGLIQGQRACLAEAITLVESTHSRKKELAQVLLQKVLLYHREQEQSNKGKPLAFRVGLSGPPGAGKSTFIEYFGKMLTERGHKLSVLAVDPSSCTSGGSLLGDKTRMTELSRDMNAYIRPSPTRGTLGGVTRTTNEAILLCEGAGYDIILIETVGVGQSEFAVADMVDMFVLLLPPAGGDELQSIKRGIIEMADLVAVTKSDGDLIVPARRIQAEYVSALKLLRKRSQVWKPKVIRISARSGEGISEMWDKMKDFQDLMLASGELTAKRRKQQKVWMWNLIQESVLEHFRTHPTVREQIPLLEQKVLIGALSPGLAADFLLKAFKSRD

T4: human CblA K276E (human, UniProt Q8IVH4 72-418, K276E)
T4 sequence: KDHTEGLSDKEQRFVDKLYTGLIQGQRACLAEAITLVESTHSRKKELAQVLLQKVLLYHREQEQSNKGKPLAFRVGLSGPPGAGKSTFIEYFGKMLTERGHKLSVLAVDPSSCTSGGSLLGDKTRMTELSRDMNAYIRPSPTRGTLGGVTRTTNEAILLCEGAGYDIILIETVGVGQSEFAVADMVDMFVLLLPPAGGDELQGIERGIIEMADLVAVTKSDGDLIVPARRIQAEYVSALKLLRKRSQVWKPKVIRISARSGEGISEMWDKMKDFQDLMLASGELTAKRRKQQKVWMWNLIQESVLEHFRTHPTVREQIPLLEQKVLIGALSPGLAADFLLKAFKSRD

T5: human CblA Q273A (human, UniProt Q8IVH4 72-418, Q273A)
T5 sequence: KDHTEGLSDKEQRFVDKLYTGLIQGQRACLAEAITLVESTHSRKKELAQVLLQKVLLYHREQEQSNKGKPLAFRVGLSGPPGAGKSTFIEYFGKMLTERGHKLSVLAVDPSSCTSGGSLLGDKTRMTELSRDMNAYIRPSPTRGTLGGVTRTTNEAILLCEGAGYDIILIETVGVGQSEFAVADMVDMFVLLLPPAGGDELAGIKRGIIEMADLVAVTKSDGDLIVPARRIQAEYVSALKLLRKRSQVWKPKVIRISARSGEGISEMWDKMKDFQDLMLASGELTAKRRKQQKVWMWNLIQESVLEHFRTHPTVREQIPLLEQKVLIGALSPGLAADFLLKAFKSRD

T6: human CblA G278D (human, UniProt Q8IVH4 72-418, G278D)
T6 sequence: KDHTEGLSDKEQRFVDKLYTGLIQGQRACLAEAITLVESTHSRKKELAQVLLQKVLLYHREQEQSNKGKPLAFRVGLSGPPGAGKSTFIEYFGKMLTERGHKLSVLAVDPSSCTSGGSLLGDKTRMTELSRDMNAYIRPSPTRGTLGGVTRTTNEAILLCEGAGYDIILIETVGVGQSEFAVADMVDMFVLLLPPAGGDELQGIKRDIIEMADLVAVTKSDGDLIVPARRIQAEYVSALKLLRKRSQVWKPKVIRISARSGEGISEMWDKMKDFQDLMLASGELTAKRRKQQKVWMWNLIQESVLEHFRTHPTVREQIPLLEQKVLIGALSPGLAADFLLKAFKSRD

T7: human CblA K276A (human, UniProt Q8IVH4 72-418, K276A)
T7 sequence: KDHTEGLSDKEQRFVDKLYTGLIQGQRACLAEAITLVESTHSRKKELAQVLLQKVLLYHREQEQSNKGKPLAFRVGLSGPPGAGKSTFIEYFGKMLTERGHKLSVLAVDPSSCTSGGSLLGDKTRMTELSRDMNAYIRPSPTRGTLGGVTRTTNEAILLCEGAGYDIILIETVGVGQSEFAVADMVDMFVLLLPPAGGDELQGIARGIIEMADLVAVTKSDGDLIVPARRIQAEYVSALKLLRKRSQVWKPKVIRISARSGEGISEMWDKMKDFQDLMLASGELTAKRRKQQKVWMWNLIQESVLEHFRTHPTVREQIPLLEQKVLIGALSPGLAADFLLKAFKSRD


Columns and labels:
[1] = biological target: T1, human MCM-CblA complex; experiment: gel filtration and negative stain EM; format: binding; details: MCM 25 μM, CblA 50 μM, GMPPCP 500 μM
[2] = biological target: T2, human CblA, wild type; experiment: cell-based or functional assay
[3] = biological target: T3, human CblA G274S; experiment: cell-based or functional assay
[4] = biological target: T4, human CblA K276E; experiment: cell-based or functional assay
[5] = biological target: T5, human CblA Q273A; experiment: cell-based or functional assay
[6] = biological target: T6, human CblA G278D; experiment: cell-based or functional assay
[7] = biological target: T7, human CblA K276A; experiment: cell-based or functional assay
[8] = biological target: T2, human CblA, wild type; experiment: SEC-MALS

GTPase activity of CblA in the presence of MCM (GAP activation) [2] [min⁻¹]	GTPase activity of CblA in the presence of MCM (GAP activation) [3] [min⁻¹]	GTPase activity of CblA in the presence of MCM (GAP activation) [4] [min⁻¹]	GTPase activity of CblA in the presence of MCM (GAP activation) [5] [min⁻¹]	GTPase activity of CblA in the presence of MCM (GAP activation) [6] [min⁻¹]	GTPase activity of CblA in the presence of MCM (GAP activation) [7] [min⁻¹]	stoichiometry N [8]	Molecule	gel filtration and negative stain EM; block of AdoCbl transfer [1]
–	–	–	–	–	–	–	Nc1nc2c(ncn2[C@@H]2O[C@H](COP(=O)(O)OP(=O)(O)CP(=O)(O)O)[C@@H](O)[C@H]2O)c(=O)[nH]1 [GMPPCP]	higher order oligomeric peak seen in the presence of GMPPCP
2.78	1.04	0.92	0.86	3.07	2.98	2 MCM (dimer) per CblA (dimer)	human methylmalonyl-CoA mutase (enzyme, UniProt P22033 33-750, looked up) LHQQQPLHPEWAALAKKQLKGKNPEDLIWHTPEGISIKPLYSKRDTMDLPEELPGVKPFTRGPYPTMYTFRPWTIRQYAGFSTVEESNKFYKDNIKAGQQGLSVAFDLATHRGYDSDNPRVRGDVGMAGVAIDTVEDTKILFDGIPLEKMSVSMTMNGAVIPVLANFIVTGEEQGVPKEKLTGTIQNDILKEFMVRNTYIFPPEPSMKIIADIFEYTAKHMPKFNSISISGYHMQEAGADAILELAYTLADGLEYSRTGLQAGLTIDEFAPRLSFFWGIGMNFYMEIAKMRAGRRLWAHLIEKMFQPKNSKSLLLRAHCQTSGWSLTEQDPYNNIVRTAIEAMAAVFGGTQSLHTNSFDEALGLPTVKSARIARNTQIIIQEESGIPKVADPWGGSYMMECLTNDVYDAALKLINEIEEMGGMAKAVAEGIPKLRIEECAARRQARIDSGSEVIVGVNKYQLEKEDAVEVLAIDNTSVRNRQIEKLKKIKSSRDQALAERCLAALTECAASGDGNILALAVDASRARCTVGEITDALKKVFGEHKANDRMVSGAYRQEFGESKEITSAIKRVHKFMEREGRRPRLLVAKMGQDGHDRGAKVIATGFADLGFDVDIGPLFQTPREVAQQAVDADVHAVGISTLAAGHKTLVPELIKELNSLGRPDILVMCGGVIPPQDYEFLFEVGVSNVFGPGTRIPKAAVQVLDDIEKCLEKKQQSV	–
